Source: patent US20180171002A1 (BERG, published 2018)

T1: E.Coli-expressed partial FLNA (aa 1443-2131) (human, UniProt P21333 1443-2131)
T1 construct: also called FLNA Partial; partial FLNA protein
T1 sequence: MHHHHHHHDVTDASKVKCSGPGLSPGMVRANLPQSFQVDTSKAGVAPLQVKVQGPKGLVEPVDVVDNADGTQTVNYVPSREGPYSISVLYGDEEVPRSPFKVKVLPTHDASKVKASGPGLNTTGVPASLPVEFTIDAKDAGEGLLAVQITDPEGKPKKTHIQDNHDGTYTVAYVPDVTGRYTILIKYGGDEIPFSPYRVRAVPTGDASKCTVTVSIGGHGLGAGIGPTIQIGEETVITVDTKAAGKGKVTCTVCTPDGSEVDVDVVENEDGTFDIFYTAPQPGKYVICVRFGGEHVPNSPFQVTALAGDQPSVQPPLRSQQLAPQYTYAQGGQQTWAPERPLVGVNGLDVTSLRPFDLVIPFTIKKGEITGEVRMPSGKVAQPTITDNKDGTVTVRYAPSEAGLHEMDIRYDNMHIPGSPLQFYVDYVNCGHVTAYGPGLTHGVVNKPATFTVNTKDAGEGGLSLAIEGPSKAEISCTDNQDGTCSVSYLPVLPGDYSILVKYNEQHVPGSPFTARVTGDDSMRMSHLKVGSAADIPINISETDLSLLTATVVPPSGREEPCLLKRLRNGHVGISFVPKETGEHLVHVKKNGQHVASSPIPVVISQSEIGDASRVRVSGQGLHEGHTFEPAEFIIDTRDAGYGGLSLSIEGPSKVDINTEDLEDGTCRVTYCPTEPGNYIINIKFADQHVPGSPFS

T2: E.Coli-expressed FLNC (aa 1438-2128) (Homo sapiens (Human), UniProt Q14315 1438-2128)
T2 construct: also called Partial filamin C
T2 sequence: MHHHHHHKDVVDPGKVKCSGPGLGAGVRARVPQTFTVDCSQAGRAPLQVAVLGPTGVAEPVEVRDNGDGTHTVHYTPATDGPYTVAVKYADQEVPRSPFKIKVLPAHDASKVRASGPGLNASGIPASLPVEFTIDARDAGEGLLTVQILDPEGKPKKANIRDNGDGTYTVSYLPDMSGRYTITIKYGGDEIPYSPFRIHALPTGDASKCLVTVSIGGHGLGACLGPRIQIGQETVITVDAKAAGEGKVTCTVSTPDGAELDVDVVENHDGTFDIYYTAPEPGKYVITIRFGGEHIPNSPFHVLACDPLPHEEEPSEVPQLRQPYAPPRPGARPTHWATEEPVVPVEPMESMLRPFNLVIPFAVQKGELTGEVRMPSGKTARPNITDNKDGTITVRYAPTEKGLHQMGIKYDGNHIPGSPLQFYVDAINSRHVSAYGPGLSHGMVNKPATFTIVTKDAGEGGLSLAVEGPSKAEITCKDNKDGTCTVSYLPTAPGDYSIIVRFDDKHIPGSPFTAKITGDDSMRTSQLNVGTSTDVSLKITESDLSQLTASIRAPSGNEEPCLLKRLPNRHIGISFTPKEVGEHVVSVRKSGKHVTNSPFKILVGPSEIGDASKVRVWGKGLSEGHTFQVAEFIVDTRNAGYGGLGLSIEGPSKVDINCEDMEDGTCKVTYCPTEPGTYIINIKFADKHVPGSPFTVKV


Columns and labels:
[1] = molecular target: E.Coli-expressed FLNC (aa 1438-2128) (Homo sapiens (Human)) (UniProt Q14315); assay: ELISA, positive control
[2] = molecular target: E.Coli-expressed partial FLNA (aa 1443-2131) (human) (UniProt P21333); assay: ELISA, positive control
[3] = molecular target: T3, HEK293-expressed full length FLNA (UniProt: P21333) (human, UniProt P21333 2-2647); assay: ELISA, positive control
T3 construct: Full length protein; also called full length human FLNA protein; Full length filamin A

[4] = molecular target: E.Coli-expressed FLNC (aa 1438-2128) (Homo sapiens (Human)) (UniProt Q14315); assay: ELISA, negative control
[5] = molecular target: E.Coli-expressed partial FLNA (aa 1443-2131) (human) (UniProt P21333); assay: ELISA, negative control
[6] = molecular target: E.Coli-expressed partial FLNB (aa 1416-2089) (Homo sapiens (Human)) (UniProt O75369); assay: ELISA, negative control
[7] = molecular target: HEK293-expressed full length FLNB (Homo sapiens (Human)) (UniProt O75369); assay: ELISA, negative control
[8] = molecular target: T3, HEK293-expressed full length FLNA …; assay: ELISA, negative control
[9] = molecular target: T1, E.Coli-expressed partial FLNA (aa …); assay: ELISA, hybridoma supernatant on protein
Procedure: (§1) Next, supernatants from clone 2C12, 3F4, and 6E3 were tested to bind the above proteins by ELISA. FLNA proteins were tested for specificity, while homologous proteins FLNB and FLNC from the same family were tested for cross-reactivity. 10% pooled normal human serum was also included for any unexpected non-specific binding.

[10] = molecular target: T3, HEK293-expressed full length FLNA …; assay: ELISA, hybridoma supernatant on protein
Procedure: as §1

[11] = molecular target: T2, E.Coli-expressed FLNC (aa 1438-2128); assay: ELISA, hybridoma supernatant on protein
Procedure: as §1

[12] = molecular target: T1, E.Coli-expressed partial FLNA (aa …); assay: BLI (Octet), antibody on AMC anti-mIgG Fc capture sensor, FLNA Partial at 100 nM
Procedure: Kinetics studies with ForteBio Bio-Layer Interferometry (BLI) technology were carried out. BLI is a label-free technology for measuring biomolecular interactions. It is an optical analytical technique that analyzes the interference pattern of white light reflected from two surfaces: a layer of immobilized protein on the biosensor tip, and an internal reference layer. Any change in the number of molecules bound to the biosensor tip causes a shift in the interference pattern that can be measured in real-time. The Octet analysis results are shown as below in Table 3.

T3 sequence (P21333 other isoform, or with tags, fused parts or gaps limits assumed): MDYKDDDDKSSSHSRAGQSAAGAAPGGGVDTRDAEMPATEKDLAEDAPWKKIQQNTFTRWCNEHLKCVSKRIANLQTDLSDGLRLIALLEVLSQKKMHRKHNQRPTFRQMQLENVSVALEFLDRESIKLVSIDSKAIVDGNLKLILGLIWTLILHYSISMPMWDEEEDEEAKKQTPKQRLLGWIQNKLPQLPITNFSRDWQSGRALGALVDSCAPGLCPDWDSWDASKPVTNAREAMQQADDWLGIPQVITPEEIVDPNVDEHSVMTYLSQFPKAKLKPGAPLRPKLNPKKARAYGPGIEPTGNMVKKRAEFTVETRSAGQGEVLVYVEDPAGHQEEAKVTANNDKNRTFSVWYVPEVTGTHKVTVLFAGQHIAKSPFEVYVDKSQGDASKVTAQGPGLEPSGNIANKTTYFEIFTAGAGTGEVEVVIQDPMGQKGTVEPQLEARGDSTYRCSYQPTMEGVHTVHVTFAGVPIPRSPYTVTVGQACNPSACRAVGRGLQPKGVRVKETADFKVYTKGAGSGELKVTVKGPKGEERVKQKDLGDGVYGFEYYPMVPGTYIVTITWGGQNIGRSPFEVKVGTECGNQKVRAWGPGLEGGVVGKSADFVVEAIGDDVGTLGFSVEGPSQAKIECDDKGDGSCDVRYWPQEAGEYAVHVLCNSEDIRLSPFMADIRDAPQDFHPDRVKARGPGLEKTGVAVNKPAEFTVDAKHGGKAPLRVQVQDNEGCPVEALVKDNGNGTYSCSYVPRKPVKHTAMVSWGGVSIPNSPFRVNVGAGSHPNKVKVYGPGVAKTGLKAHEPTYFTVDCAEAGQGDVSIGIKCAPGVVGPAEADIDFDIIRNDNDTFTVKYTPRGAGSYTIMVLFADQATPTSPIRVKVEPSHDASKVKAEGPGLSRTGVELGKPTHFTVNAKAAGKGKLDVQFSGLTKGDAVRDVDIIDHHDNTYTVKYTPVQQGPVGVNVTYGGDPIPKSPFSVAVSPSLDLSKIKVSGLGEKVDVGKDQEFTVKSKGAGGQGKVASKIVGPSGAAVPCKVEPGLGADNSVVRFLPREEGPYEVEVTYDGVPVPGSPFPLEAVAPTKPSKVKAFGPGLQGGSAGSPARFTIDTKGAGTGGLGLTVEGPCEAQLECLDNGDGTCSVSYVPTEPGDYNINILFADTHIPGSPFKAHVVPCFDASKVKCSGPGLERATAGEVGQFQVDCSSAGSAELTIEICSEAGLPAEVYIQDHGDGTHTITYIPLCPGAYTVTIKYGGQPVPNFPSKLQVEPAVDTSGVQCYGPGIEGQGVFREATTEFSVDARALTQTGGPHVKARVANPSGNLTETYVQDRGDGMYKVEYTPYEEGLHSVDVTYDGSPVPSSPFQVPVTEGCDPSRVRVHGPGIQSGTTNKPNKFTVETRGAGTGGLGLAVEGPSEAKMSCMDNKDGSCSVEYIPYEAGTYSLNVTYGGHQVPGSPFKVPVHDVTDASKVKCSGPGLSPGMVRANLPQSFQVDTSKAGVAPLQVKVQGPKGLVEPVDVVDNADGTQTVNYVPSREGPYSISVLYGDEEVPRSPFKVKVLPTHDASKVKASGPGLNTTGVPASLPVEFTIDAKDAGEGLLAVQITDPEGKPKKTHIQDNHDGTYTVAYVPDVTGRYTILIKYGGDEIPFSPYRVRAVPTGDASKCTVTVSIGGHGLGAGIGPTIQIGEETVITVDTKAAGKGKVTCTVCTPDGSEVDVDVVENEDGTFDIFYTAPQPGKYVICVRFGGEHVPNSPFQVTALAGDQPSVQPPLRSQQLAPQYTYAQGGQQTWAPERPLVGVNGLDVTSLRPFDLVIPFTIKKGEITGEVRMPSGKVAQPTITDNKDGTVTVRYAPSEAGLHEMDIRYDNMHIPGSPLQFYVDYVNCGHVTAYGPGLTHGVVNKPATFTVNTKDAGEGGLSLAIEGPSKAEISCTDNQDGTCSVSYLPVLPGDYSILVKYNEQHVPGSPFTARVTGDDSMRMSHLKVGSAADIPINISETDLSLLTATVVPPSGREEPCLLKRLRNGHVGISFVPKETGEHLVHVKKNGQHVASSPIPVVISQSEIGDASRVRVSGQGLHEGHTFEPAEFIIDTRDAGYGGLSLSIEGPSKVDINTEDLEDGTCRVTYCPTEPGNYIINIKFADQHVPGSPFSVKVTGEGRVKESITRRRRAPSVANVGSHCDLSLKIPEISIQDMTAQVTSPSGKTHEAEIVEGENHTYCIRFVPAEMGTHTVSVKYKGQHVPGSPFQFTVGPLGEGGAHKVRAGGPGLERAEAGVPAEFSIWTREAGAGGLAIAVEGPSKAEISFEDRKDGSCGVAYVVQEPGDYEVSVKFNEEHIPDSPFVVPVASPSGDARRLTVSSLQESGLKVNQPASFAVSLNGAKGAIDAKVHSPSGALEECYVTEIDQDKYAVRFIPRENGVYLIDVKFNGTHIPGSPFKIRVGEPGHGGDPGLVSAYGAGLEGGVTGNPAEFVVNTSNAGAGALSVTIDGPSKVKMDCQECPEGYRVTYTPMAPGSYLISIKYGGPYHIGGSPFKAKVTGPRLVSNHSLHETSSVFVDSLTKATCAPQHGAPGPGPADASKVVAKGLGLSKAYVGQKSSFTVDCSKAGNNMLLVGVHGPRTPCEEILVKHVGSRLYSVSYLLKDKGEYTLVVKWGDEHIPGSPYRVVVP
Chain of E.Coli-expressed partial FLNB (aa 1416-2089) (Homo sapiens (Human)) (O75369 1416-2089, tags left off): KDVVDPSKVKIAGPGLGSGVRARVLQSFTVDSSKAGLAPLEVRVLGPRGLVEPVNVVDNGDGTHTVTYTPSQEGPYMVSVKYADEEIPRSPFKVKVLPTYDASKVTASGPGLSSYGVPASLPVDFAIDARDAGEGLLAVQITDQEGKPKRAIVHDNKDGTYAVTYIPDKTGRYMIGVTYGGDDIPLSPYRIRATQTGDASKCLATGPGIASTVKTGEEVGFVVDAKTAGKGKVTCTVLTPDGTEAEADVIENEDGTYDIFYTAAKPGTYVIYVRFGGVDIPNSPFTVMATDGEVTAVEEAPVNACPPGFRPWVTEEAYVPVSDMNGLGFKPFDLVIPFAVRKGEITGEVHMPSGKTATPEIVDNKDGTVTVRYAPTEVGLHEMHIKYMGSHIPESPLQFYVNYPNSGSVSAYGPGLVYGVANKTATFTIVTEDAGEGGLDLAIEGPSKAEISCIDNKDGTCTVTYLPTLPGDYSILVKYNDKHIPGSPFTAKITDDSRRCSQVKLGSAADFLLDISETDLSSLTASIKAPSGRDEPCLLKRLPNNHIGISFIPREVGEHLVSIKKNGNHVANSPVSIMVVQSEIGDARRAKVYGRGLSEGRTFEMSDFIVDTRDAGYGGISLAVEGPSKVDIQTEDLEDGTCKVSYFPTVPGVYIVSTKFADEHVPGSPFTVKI

ELISA test result (signal) [1]	ELISA test result (signal) [2]	ELISA test result (signal) [3]	ELISA test result (signal) [4]	ELISA test result (signal) [5]	ELISA test result (signal) [6]	ELISA test result (signal) [7]	ELISA test result (signal) [8]	ELISA test result (signal) [9]	ELISA test result (signal) [10]	ELISA test result (signal) [11]	Kd [12]	Response [12]	koff [12]	kon [12]	Molecule
								3.04	2.35	0.042	0.999 nM	0.283	0.000804 s⁻¹	805000 M⁻¹ s⁻¹	anti-FLNA murine monoclonal antibody 3F4 (antibody, IgG2b, V domains shown, also called clone 3F4) VH: EVQLQESGPGLAKPSQTLSLTCSVTGYSITSNYWNWIRKFPGNKLEYMGYISFSGSTYYNPSLKSRISITRDTSKNQYYLQLNSVTTEDTATYYCARWNYYAMDYWGQGTSVTVSS VL: DFLLTQSPAILSVSPGERVSFSCRASQSIGTNIHWYQQRTNGSPRLLIKFASESISGIPSRFSGSGSGTDFTLTINSVESEDIADYYCQQSNSWPYTFGGGTKLEIK
								2.57	2.2	0.041	4.02 nM	0.33	0.000784 s⁻¹	195000 M⁻¹ s⁻¹	anti-FLNA murine monoclonal antibody 6E3 (antibody, IgG1, V domains shown, also called clone 6E3; mab 6E3) VH: QVQLQQSGAELMKPGASVKLSCKATGYTFTGYWIEWVKQRPGHGLEWIGEILPGNGSTNCNEKFKGKATFTATTSSNTAYMQLSSLTTEDSAIYYCTTVSYWGQGTTLTVSS VL: DVVMTQTPLSLPVSLGDQASISCRSSQSLVHSNGNTYLHWYLQKPGQSPNLLIYKVSNRFSGVPDRFTGSGSGTDFTLKISRVEAEDLGVYFCSQSTHVPFTFGSGTKLEIK

More lines, now with the values behind:

Molecule	ELISA test result (signal) [1]	ELISA test result (signal) [2]	ELISA test result (signal) [3]	ELISA test result (signal) [4]	ELISA test result (signal) [5]	ELISA test result (signal) [6]	ELISA test result (signal) [7]	ELISA test result (signal) [8]	ELISA test result (signal) [9]	ELISA test result (signal) [10]	ELISA test result (signal) [11]	Kd [12]	Response [12]	koff [12]	kon [12]
Pos ctl (positive control of the ELISA of Table 2)	1.7	3.85	3.09												
Neg ctl (negative control of the ELISA of Table 2)				0.042	0.072	0.069	0.072	0.043							
anti-FLNA murine monoclonal antibody 2C12 (antibody, IgG1, V domains shown, also called clone 2C12) VH: QVQLKQSGPGLVQPSQSLSITCTVSGFSLTNYGVHWVRQSPGKGLEWLGVIWRGGSTDYNAAFMSRLSITKDNSKSQVFFKMNSLQADDTAIYFCALRGNYVHYYLMDYWGQGTSVTVSS VL: DIQVTQTPSSLSASLGDRVTISCRASQDISNYLNWYQQKPDGTVKLLIYYTSRLHSGVPSRFSGSGSGTDYSLTISNLDQEDIATYFCQQGNTLPPTFGGGTNLEIK									3.32	1.87	0.044	4.82 nM	0.222	0.000381 s⁻¹	79000 M⁻¹ s⁻¹
